Assay results published in the supplement of paper PMC10065799, “High-throughput profiling of sequence recognition by tyrosine kinases and SH2 domains using bacterial peptide display” (eLife, 2023).

How the values were obtained:
Grb2 SH2 = Grb2 SH2 (UniProt P62993); assay: SH2 binding enrichment of the phosphorylated peptide, bacterial display (enrichment ratio); higher = better substrate or ligand; peptides without Tyr show the background
c-Src SH2 = assay: as above
SHP2-C SH2 = assay: as above
EPHB2 = EPHB2 (UniProt P29323); assay: phosphorylation enrichment, bacterial display (enrichment ratio); higher = better substrate or ligand; peptides without Tyr show the background
EPHB2, sequence (P29323 whole entry, looked up): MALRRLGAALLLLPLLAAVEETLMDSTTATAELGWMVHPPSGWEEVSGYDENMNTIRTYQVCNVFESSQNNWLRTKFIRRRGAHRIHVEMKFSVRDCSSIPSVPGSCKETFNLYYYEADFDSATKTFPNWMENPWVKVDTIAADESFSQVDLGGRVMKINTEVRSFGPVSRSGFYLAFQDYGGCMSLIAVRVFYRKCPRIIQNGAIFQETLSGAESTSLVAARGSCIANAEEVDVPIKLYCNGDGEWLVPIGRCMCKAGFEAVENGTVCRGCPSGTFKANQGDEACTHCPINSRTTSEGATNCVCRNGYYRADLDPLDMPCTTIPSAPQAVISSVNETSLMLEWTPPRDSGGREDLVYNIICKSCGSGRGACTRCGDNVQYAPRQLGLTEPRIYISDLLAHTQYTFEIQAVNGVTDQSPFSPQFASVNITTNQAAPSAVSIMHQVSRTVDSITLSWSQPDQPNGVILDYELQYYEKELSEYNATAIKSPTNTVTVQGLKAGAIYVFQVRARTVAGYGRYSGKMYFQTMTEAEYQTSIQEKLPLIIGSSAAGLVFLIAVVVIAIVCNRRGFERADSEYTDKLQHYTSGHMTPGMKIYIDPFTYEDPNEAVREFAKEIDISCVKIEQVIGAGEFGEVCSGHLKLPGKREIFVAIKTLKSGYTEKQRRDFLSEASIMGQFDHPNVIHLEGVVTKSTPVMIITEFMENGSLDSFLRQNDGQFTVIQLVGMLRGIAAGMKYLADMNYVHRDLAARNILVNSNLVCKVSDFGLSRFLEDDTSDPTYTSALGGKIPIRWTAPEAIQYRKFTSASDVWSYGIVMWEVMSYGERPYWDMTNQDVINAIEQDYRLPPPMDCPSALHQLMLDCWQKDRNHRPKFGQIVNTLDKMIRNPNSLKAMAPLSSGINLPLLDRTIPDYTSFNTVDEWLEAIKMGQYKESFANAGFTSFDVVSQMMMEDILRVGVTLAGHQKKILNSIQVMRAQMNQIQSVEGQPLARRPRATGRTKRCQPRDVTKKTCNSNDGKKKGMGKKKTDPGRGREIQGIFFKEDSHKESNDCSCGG

EPHB1 = EPHB1 (UniProt P54762); assay: as above
FGFR3 = FGFR3 (UniProt P22607); assay: as above
FGFR3, sequence (P22607 whole entry, looked up): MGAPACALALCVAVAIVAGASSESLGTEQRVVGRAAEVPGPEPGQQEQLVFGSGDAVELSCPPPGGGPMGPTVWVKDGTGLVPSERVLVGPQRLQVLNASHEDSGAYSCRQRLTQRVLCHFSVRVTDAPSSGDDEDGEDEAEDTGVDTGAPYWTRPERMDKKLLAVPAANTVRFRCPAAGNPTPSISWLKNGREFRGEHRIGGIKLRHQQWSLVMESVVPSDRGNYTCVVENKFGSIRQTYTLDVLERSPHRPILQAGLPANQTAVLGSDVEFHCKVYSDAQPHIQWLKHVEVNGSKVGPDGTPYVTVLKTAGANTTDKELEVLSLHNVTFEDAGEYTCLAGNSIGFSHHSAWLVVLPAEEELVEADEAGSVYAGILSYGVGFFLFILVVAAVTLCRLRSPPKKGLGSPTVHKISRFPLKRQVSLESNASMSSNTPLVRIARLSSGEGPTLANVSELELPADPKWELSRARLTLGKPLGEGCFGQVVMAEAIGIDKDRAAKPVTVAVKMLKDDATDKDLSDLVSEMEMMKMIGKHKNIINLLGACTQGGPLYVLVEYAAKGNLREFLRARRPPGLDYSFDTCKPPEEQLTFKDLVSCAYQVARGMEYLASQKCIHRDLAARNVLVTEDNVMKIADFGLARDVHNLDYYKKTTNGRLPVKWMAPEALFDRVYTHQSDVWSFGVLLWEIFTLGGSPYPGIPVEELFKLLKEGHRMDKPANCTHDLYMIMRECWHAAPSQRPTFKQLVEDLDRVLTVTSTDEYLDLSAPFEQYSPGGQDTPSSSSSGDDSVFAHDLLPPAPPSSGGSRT

MERTK = MERTK (UniProt Q12866); assay: as above
c-Src = assay: as above
c-Abl (mouse) = assay: as above
Hck = Hck (UniProt P08631); assay: as above
Hck, sequence (P08631 whole entry, looked up): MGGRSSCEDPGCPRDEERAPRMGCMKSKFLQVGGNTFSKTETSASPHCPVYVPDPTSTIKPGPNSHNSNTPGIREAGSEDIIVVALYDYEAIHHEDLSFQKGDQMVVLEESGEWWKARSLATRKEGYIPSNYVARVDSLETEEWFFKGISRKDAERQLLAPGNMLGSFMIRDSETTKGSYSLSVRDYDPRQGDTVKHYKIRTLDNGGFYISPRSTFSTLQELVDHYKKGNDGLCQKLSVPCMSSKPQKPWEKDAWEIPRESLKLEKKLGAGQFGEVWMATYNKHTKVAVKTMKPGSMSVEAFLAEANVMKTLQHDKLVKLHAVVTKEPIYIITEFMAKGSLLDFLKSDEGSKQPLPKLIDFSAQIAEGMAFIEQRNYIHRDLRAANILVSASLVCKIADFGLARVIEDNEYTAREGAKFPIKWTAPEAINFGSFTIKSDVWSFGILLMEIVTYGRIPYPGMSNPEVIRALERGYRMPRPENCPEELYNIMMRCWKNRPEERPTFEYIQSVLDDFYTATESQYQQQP

Jak2 = Jak2 (UniProt O60674); assay: as above
Jak2, sequence (O60674 whole entry, looked up): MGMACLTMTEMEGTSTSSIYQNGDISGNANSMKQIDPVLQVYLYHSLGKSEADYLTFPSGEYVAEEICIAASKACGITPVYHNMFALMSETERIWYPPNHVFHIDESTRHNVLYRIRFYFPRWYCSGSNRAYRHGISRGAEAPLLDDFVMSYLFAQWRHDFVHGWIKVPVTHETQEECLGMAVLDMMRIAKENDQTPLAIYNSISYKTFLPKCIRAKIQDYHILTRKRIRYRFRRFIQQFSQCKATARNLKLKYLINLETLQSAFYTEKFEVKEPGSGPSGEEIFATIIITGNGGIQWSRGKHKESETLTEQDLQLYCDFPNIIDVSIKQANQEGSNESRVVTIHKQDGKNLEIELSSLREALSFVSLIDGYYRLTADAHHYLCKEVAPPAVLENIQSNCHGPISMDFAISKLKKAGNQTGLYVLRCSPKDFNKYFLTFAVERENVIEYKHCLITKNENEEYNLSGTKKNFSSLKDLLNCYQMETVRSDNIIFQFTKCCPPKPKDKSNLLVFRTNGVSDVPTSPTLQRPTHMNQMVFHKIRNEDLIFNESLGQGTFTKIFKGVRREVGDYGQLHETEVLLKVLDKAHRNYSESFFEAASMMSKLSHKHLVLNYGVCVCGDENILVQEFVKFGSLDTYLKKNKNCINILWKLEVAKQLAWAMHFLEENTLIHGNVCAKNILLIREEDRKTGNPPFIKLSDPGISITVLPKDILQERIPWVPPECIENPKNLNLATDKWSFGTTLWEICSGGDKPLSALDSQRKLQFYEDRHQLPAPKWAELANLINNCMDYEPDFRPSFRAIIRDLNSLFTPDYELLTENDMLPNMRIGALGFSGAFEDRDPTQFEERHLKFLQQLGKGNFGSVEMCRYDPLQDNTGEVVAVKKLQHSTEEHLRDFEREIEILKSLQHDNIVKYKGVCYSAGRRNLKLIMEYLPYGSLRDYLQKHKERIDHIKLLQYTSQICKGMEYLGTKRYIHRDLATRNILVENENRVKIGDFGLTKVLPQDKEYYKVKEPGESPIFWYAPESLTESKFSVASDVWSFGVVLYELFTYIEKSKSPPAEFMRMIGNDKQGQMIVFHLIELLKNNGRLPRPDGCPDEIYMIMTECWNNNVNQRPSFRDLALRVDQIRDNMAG

Fes = Fes (UniProt P07332); assay: as above
Fyn = Fyn (UniProt P06241); assay: as above
Fyn, sequence (P06241 whole entry, looked up): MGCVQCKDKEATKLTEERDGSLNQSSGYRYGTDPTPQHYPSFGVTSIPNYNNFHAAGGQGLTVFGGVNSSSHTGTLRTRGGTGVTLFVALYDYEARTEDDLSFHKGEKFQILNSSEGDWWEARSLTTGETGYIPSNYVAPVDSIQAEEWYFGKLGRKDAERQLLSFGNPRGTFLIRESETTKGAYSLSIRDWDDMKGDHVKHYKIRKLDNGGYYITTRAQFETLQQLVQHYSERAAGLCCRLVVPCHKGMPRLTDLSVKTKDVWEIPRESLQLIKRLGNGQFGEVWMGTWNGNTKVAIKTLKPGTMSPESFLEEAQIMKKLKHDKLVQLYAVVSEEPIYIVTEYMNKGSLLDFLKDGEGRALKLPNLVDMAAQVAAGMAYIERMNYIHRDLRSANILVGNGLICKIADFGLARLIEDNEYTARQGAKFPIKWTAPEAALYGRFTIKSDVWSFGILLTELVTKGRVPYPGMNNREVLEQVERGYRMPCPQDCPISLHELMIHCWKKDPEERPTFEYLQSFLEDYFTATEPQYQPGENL

Fer (mouse) = assay: as above
AncSZ = assay: as above
FGFR1 = FGFR1 (UniProt P11362); assay: as above
FGFR1, sequence (P11362 whole entry, looked up, the tested form may be a part): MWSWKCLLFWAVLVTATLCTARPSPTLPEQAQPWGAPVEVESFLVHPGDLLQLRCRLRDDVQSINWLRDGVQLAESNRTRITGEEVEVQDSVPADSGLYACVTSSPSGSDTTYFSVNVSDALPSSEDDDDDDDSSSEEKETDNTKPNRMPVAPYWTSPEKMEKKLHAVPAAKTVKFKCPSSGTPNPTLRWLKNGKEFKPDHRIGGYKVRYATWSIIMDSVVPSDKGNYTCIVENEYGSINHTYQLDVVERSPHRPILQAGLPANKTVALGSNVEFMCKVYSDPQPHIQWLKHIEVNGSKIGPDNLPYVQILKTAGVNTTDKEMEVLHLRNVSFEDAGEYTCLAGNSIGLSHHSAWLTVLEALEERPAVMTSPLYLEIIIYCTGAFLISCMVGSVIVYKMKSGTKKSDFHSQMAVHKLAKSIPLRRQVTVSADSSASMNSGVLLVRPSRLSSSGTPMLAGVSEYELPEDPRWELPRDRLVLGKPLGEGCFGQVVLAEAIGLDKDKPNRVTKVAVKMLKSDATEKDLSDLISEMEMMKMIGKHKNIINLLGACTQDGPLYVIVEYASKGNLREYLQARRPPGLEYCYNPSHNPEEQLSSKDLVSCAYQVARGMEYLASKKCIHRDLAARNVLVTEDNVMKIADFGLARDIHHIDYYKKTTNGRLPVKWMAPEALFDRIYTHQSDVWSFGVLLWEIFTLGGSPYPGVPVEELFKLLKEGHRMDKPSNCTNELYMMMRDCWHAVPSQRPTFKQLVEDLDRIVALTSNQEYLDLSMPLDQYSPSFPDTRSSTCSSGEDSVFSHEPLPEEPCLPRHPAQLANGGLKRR
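For SH2 binding enrichment of the phosphorylated peptide, bacterial display in this document: peptide library displayed on the E. coli surface as eCPX fusions, selected cells deep-sequenced, score is each peptide's frequency after selection divided by its frequency in the input.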
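For phosphorylation enrichment, bacterial display in this document: 11-residue human phosphosite peptides and single-mutation variants displayed on the E. coli surface, counted by deep sequencing, each peptide's frequency after selection divided by its frequency in the unselected input library; frequency after pTyr selection over input frequency; kinase dosed for 20-30% of maximal phosphorylation in three min.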

| Sequence | SH2 binding enrichment (Grb2 SH2) | SH2 binding enrichment (c-Src SH2) | SH2 binding enrichment (SHP2-C SH2) | phosphorylation enrichment (EPHB2) | phosphorylation enrichment (EPHB1) | phosphorylation enrichment (FGFR3) | phosphorylation enrichment (MERTK) | phosphorylation enrichment (c-Src) | phosphorylation enrichment (c-Abl (mouse)) | phosphorylation enrichment (Hck) | phosphorylation enrichment (Jak2) | phosphorylation enrichment (Fes) | phosphorylation enrichment (Fyn) | phosphorylation enrichment (Fer (mouse)) | phosphorylation enrichment (AncSZ) | phosphorylation enrichment (FGFR1) |
| --- | --- | --- | --- | --- | --- | --- | --- | --- | --- | --- | --- | --- | --- | --- | --- | --- |
| EKNANYKEGTY [CLRN1_Y171_I168N] | 0.963 | 0.538 | 0.774 | 0.387 | 0.378 | 0.4 | 0.372 | 0.426 | 0.451 | 0.356 | 0.575 | 0.617 | 0.403 | 0.363 | 0.517 | 0.383 |
| EKQLLYLENKT [FRK_Y132_S133L] | 0.881 | 0.467 | 0.631 | 0.44 | 0.567 | 0.589 | 0.337 | 0.356 | 0.41 | 0.459 | 0.672 | 0.985 | 0.467 | 0.405 | 0.712 | 0.398 |
| ELANFYKLHHI [AK7_Y391_YF] | 0.901 | 0.481 | 1.01 | 0.863 | 0.638 | 0.672 | 0.67 | 0.819 | 0.8 | 0.796 | 0.922 | 1.06 | 0.689 | 0.874 | 0.63 | 0.561 |
| ELANLYHHVWM [BICD2_Y538_C542W] | 0.869 | 0.816 | 0.835 | 1.93 | 6.35 | 4.76 | 6.21 | 2.51 | 0.918 | 5.11 | 1.3 | 1.25 | 2.75 | 12.9 | 1.32 | 6.38 |
| ELQDDYEDMME [SLC4A1_Y8] | 0.907 | 0.747 | 0.665 | 0.558 | 0.646 | 0.718 | 0.451 | 0.415 | 0.56 | 0.659 | 0.956 | 1.07 | 0.542 | 0.549 | 1.16 | 0.566 |
| ENSLDYGSAWA [AR_Y395_P392S] | 0.752 | 0.475 | 0.563 | 0.677 | 0.486 | 0.591 | 0.462 | 0.514 | 0.638 | 0.566 | 0.864 | 0.975 | 0.556 | 0.457 | 1.04 | 0.467 |
| EQMASYSGHSV [ITGA2B_Y319_F320S] | 0.821 | 0.515 | 0.615 | 0.363 | 0.298 | 0.406 | 0.337 | 0.37 | 0.493 | 0.488 | 0.736 | 0.543 | 0.449 | 0.734 | 0.496 | 0.384 |
| EQMLEYMEQLQ [CFAP45_Y289] | 0.799 | 0.357 | 0.5 | 0.561 | 0.579 | 0.846 | 0.494 | 0.505 | 0.532 | 0.638 | 1.1 | 0.994 | 0.549 | 0.526 | 1.21 | 0.764 |
| EQQDMYRLKVL [ABCC6_Y372_N370D] | 0.852 | 0.58 | 0.63 | 0.482 | 0.354 | 0.581 | 0.376 | 0.415 | 0.453 | 0.427 | 0.638 | 0.773 | 0.387 | 0.473 | 0.774 | 0.451 |
